The target in experiment [1] is 16055 NFL TD 2CC+ trimer (HIV-1 (strain 16055)). The experiment is described as follows: cryo-EM structure.
Experiment [2] has as its target BG505 NFL CC+ trimer (HIV-1 (strain BG505)). The experiment is described as follows: cryo-EM structure.

Usually stoichiometry N stands for a count of units in the complex or per binding partner. The substance “16055 NFL TD 2CC+ trimer (domain or fragment)” returned a stoichiometry N in experiment [1] of 3. In turn, “BG505 NFL CC+ trimer (domain or fragment)” displayed a stoichiometry N in experiment [2] of 3.
